# Assay results from patent US20150210738.
# Assays:
# [1] = biological target: pVI (precursor to protein VI) (Human adenovirus 2) (UniProt P03274); experiment: FP; settings: 20 mM Tris pH 8.0, 0.025% DDM, 0.1 mM DTT, 1 mM MgCl2, 21 C; 4:1 stoichiometry
# [2] = tested on: Protein VI (Human adenovirus 2); experiment: FP; settings: 20 mM Tris pH 8.0, 0.025% DDM, 1 mM MgCl2, 21 C
# Sequence of pVI (precursor to protein VI) (Human adenovirus 2) (P03274 whole entry): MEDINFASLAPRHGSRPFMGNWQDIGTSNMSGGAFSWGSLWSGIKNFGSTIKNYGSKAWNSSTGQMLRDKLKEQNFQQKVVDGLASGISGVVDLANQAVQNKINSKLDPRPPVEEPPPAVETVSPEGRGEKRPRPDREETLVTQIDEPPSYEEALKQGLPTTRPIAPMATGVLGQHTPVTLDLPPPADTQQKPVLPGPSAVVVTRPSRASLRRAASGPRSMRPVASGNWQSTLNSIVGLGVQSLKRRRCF
substance,measurement,setting,value
33-mer dsDNA,Kd,[1],35 nM
same,Kd,[2],241 nM
